± gives the uncertainty stated by the source.
Test: abundance fitness (aPCA) (normalised: wild type 0, dead -1); higher = more abundant; growth selection in yeast, the domain comes from the species named
Conditions: Homo sapiens
For “Scaffold attachment factor B2 E66F, Q14151”, the abundance fitness was -0.417 ± 0.13.
For “Scaffold attachment factor B2 E66G, Q14151”, the abundance fitness was -0.108 ± 0.083.
Substance “Scaffold attachment factor B2 E66H, Q14151” has an abundance fitness of -0.214 ± 0.11.
Substance “Scaffold attachment factor B2 E66I, Q14151” has an abundance fitness of -0.207 ± 0.15.
With “Scaffold attachment factor B2 E66K, Q14151” the abundance fitness was -0.5 ± 0.26.
Work on “Scaffold attachment factor B2 E66L, Q14151” yielded an abundance fitness of -0.247 ± 0.1.
Work on “Scaffold attachment factor B2 E66M, Q14151” yielded an abundance fitness of -0.329 ± 0.12.
“Scaffold attachment factor B2 E66N, Q14151” showed an abundance fitness of -0.322 ± 0.26.
With “Scaffold attachment factor B2 E66P, Q14151” the abundance fitness was -0.485 ± 0.16.
In the case of “Scaffold attachment factor B2 E66R, Q14151”, the abundance fitness is reported as -0.131 ± 0.071.
With “Scaffold attachment factor B2 E66T, Q14151” the abundance fitness was -0.301 ± 0.21.
Substance “Scaffold attachment factor B2 E66V, Q14151” has an abundance fitness of -0.232 ± 0.1.
In the case of “Scaffold attachment factor B2 E66W, Q14151”, the abundance fitness is reported as -0.365 ± 0.12.
“Scaffold attachment factor B2 E67A, Q14151” showed an abundance fitness of -0.23 ± 0.12.
“Scaffold attachment factor B2 E67C, Q14151” gave an abundance fitness of -0.433 ± 0.12.
Substance “Scaffold attachment factor B2 E67H, Q14151” has an abundance fitness of -0.218 ± 0.4.
Substance “Scaffold attachment factor B2 E67L, Q14151” has an abundance fitness of -0.495 ± 0.094.
For “Scaffold attachment factor B2 E67M, Q14151”, the abundance fitness was -0.525 ± 0.11.
For “Scaffold attachment factor B2 E67P, Q14151”, the abundance fitness was -0.377 ± 0.12.
In the case of “Scaffold attachment factor B2 E67Q, Q14151”, the abundance fitness is reported as -0.246 ± 0.1.
With “Scaffold attachment factor B2 E67R, Q14151” the abundance fitness was -0.445 ± 0.1.
Work on “Scaffold attachment factor B2 E67S, Q14151” yielded an abundance fitness of -0.226 ± 0.095.
“Scaffold attachment factor B2 E67T, Q14151” gave an abundance fitness of -0.381 ± 0.1.
Work on “Scaffold attachment factor B2 E67V, Q14151” yielded an abundance fitness of -0.333 ± 0.1.
“Scaffold attachment factor B2 E67W, Q14151” gave an abundance fitness of -0.85 ± 0.11.
For “Scaffold attachment factor B2 E67Y, Q14151”, the abundance fitness was -0.889 ± 0.34.
In the case of “Scaffold attachment factor B2 G50A, Q14151”, the abundance fitness is reported as -0.099 ± 0.089.
Substance “Scaffold attachment factor B2 G50C, Q14151” has an abundance fitness of -0.082 ± 0.12.
Substance “Scaffold attachment factor B2 G50D, Q14151” has an abundance fitness of -0.171 ± 0.12.
Substance “Scaffold attachment factor B2 G50E, Q14151” has an abundance fitness of -0.119 ± 0.084.
For “Scaffold attachment factor B2 G50F, Q14151”, the abundance fitness was -0.51 ± 0.17.
With “Scaffold attachment factor B2 G50H, Q14151” the abundance fitness was -0.108 ± 0.093.
“Scaffold attachment factor B2 G50L, Q14151” gave an abundance fitness of -0.194 ± 0.08.
In the case of “Scaffold attachment factor B2 G50M, Q14151”, the abundance fitness is reported as -0.114 ± 0.11.
In the case of “Scaffold attachment factor B2 G50N, Q14151”, the abundance fitness is reported as -0.065 ± 0.1.
In the case of “Scaffold attachment factor B2 G50P, Q14151”, the abundance fitness is reported as -1.01 ± 0.16.
For “Scaffold attachment factor B2 G50Q, Q14151”, the abundance fitness was -0.329 ± 0.12.
In the case of “Scaffold attachment factor B2 G50R, Q14151”, the abundance fitness is reported as 0.05 ± 0.079.
“Scaffold attachment factor B2 G50S, Q14151” gave an abundance fitness of -0.077 ± 0.11.
Work on “Scaffold attachment factor B2 G50T, Q14151” yielded an abundance fitness of -0.096 ± 0.17.
“Scaffold attachment factor B2 G50V, Q14151” gave an abundance fitness of -0.015 ± 0.08.
Substance “Scaffold attachment factor B2 G50W, Q14151” has an abundance fitness of -0.26 ± 0.089.
For “Scaffold attachment factor B2 G51C, Q14151”, the abundance fitness was -0.517 ± 0.13.
Work on “Scaffold attachment factor B2 G51D, Q14151” yielded an abundance fitness of -0.7 ± 0.14.
Substance “Scaffold attachment factor B2 G51E, Q14151” has an abundance fitness of -0.426 ± 0.094.
In the case of “Scaffold attachment factor B2 G51F, Q14151”, the abundance fitness is reported as -0.882 ± 0.19.
In the case of “Scaffold attachment factor B2 G51I, Q14151”, the abundance fitness is reported as -1.25 ± 0.4.
With “Scaffold attachment factor B2 G51K, Q14151” the abundance fitness was -0.786 ± 0.15.
“Scaffold attachment factor B2 G51L, Q14151” showed an abundance fitness of -0.908 ± 0.087.
“Scaffold attachment factor B2 G51M, Q14151” showed an abundance fitness of -0.853 ± 0.12.
“Scaffold attachment factor B2 G51N, Q14151” showed an abundance fitness of -0.833 ± 0.25.
“Scaffold attachment factor B2 G51P, Q14151” showed an abundance fitness of -0.998 ± 0.26.
Work on “Scaffold attachment factor B2 G51Q, Q14151” yielded an abundance fitness of -0.704 ± 0.096.
“Scaffold attachment factor B2 G51R, Q14151” gave an abundance fitness of -0.794 ± 0.072.
Work on “Scaffold attachment factor B2 G51S, Q14151” yielded an abundance fitness of -0.597 ± 0.085.
“Scaffold attachment factor B2 G51T, Q14151” gave an abundance fitness of -0.633 ± 0.1.
“Scaffold attachment factor B2 G51V, Q14151” showed an abundance fitness of -0.729 ± 0.084.
With “Scaffold attachment factor B2 G51W, Q14151” the abundance fitness was -1.41 ± 0.1.
With “Scaffold attachment factor B2 G68A, Q14151” the abundance fitness was 0.004 ± 0.094.
Substance “Scaffold attachment factor B2 G68E, Q14151” has an abundance fitness of 0.166 ± 0.095.
Work on “Scaffold attachment factor B2 G68F, Q14151” yielded an abundance fitness of -0.509 ± 0.17.
In the case of “Scaffold attachment factor B2 G68I, Q14151”, the abundance fitness is reported as -0.551 ± 0.099.
In the case of “Scaffold attachment factor B2 G68K, Q14151”, the abundance fitness is reported as 0.232 ± 0.25.
With “Scaffold attachment factor B2 G68L, Q14151” the abundance fitness was -0.365 ± 0.098.
“Scaffold attachment factor B2 G68M, Q14151” gave an abundance fitness of -0.33 ± 0.12.
Substance “Scaffold attachment factor B2 G68P, Q14151” has an abundance fitness of -0.19 ± 0.13.
For “Scaffold attachment factor B2 G68Q, Q14151”, the abundance fitness was -0.078 ± 0.1.
Work on “Scaffold attachment factor B2 G68S, Q14151” yielded an abundance fitness of -0.178 ± 0.12.
In the case of “Scaffold attachment factor B2 G68T, Q14151”, the abundance fitness is reported as -0.026 ± 0.12.
“Scaffold attachment factor B2 G68V, Q14151” gave an abundance fitness of -0.169 ± 0.092.
“Scaffold attachment factor B2 I36A, Q14151” showed an abundance fitness of 0.153 ± 0.082.
“Scaffold attachment factor B2 I36C, Q14151” gave an abundance fitness of 0.086 ± 0.099.
“Scaffold attachment factor B2 I36D, Q14151” showed an abundance fitness of 0.206 ± 0.18.
With “Scaffold attachment factor B2 I36E, Q14151” the abundance fitness was 0.157 ± 0.13.
“Scaffold attachment factor B2 I36F, Q14151” gave an abundance fitness of -0.507 ± 0.17.
In the case of “Scaffold attachment factor B2 I36G, Q14151”, the abundance fitness is reported as 0.066 ± 0.068.
For “Scaffold attachment factor B2 I36H, Q14151”, the abundance fitness was -0.208 ± 0.2.
With “Scaffold attachment factor B2 I36K, Q14151” the abundance fitness was 0.04 ± 0.089.
Substance “Scaffold attachment factor B2 I36L, Q14151” has an abundance fitness of -0.103 ± 0.087.

Source: the Human Domainome abundance scans (Beltran et al. 2025)
